Test results: PMC5460017
Blank lines part the entries; values can stand above or below the substance they belong to.

What was measured:
[1] = target: Mic60sol (Chaetomium thermophilum Mic60, residues 208–691) (Chaetomium thermophilum); test: AUC; sedimentation velocity (40,000 r.p.m., 3.5 h) and sedimentation equilibrium (9,000 r.p.m.); 20 mM HEPES/NaOH pH 7.3, 150 mM NaCl, 7 °C; 0.02–2 mg ml^-1 Mic60sol
[2] = target: Mic60sol (Chaetomium thermophilum Mic60, residues 208–691) (Chaetomium thermophilum); test: native gel or EMSA; blue native (BN)-PAGE of purified Mic60 constructs
[3] = target: full-length Mic19 (Chaetomium thermophilum) (Chaetomium thermophilum); test: SEC; gel filtration of purified Mic19 and its C132S/C143S mutant; the dimers were sensitive to reducing agents in SDS–PAGE
[4] = target: Mic60sol (Chaetomium thermophilum Mic60, residues 208–691) (Chaetomium thermophilum); test: ITC; about 450 μM Mic19 construct in the syringe titrated into about 40 μM Mic60 construct in the cell; 10 °C; 20 mM HEPES/NaOH pH 7.5, 150 mM NaCl; untagged proteins
[5] = target: Mic60solΔMitoΔLBS2 (Chaetomium thermophilum Mic60, residues 208–582) (Chaetomium thermophilum); test: native gel or EMSA; blue native (BN)-PAGE of purified Mic60 constructs
[6] = target: Mic60solΔMito (Chaetomium thermophilum Mic60, residues 208–608) (Chaetomium thermophilum); test: as above

percent dimers [3]: 30%
stoichiometry N [3]: 2
Kd [4]: 170 nM
stoichiometry N [4]: 0.73
Substance: full-length Mic19 (Chaetomium thermophilum) (natural protein)

stoichiometry N [5]: 2
Substance: Mic60solΔMitoΔLBS2 (Chaetomium thermophilum Mic60, residues 208–582) (domain or fragment)

Further lines, the substance ahead of its results:

Substance: Mic60sol (Chaetomium thermophilum Mic60, residues 208–691) (domain or fragment)
stoichiometry N [1]: 2
stoichiometry N [2]: 2

Substance: C132S/C143S Mic19 mutant (Chaetomium thermophilum) (natural protein)
Kd [4]: 3500 nM
stoichiometry N [4]: 1

Substance: Mic60solΔMito (Chaetomium thermophilum Mic60, residues 208–608) (domain or fragment)
stoichiometry N [6]: 2
